Among the data in US20150064134A1 are % activity values, retold here.

Experiment in all cases: cell-based or functional assay
Test [1] concerns the target T1, Tec(h) activated (human) (UniProt P42680).
T1 sequence (looked up): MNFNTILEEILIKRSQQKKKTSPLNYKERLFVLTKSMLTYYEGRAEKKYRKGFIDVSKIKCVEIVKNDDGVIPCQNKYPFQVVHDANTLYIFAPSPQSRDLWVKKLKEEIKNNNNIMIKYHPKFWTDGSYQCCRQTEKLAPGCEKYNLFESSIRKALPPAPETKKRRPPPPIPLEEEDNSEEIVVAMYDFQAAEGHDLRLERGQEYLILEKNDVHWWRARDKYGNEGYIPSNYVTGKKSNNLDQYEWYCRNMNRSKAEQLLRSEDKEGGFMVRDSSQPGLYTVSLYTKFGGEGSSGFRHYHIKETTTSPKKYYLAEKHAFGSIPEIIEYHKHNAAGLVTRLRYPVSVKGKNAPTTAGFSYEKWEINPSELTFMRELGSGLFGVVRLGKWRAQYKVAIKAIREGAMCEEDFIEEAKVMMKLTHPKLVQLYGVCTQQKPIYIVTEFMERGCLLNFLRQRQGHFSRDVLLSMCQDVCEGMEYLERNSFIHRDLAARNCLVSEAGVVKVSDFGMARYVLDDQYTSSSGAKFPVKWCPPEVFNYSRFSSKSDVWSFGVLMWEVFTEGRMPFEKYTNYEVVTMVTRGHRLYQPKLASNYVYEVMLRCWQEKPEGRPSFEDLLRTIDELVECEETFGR

Test [2] has as its target TrkB (h) (human) (UniProt Q16620).
For test [3], the target named is T2, SGK2(h) (human) (UniProt Q9HBY8).
T2 sequence (looked up): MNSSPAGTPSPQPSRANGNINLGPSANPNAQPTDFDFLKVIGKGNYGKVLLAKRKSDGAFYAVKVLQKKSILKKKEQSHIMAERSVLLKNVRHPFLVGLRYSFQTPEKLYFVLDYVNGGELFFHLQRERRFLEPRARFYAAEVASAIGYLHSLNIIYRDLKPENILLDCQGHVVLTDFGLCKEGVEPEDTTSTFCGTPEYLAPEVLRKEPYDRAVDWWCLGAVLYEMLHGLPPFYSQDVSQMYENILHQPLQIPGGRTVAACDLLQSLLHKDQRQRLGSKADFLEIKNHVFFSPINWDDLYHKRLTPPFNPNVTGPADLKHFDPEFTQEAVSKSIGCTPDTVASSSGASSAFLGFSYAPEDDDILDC

Test [4] addresses T3, NEK2(h) (human) (UniProt P51955).
T3 sequence (looked up): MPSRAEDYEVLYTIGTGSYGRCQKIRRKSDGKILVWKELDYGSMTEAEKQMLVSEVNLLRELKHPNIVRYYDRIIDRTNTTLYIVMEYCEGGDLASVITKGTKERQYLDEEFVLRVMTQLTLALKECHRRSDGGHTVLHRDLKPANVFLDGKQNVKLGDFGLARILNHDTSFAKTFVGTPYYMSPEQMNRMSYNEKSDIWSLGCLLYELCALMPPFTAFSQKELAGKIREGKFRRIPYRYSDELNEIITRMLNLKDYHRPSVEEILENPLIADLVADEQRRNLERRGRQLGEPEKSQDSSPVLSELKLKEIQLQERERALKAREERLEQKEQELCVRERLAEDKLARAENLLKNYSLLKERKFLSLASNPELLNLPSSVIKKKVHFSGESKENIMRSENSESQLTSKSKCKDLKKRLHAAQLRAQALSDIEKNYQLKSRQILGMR

The target of test [5] is MARK1(h) (human) (UniProt Q9P0L2).
Test [6] deals with BRK(h) (human) (UniProt Q13882).
The target in test [7] is CaMKIIδ(h) (human) (UniProt Q13557).
Test [8] concerns the target T4, Ret(h) (human) (UniProt P07949).
T4 sequence (looked up): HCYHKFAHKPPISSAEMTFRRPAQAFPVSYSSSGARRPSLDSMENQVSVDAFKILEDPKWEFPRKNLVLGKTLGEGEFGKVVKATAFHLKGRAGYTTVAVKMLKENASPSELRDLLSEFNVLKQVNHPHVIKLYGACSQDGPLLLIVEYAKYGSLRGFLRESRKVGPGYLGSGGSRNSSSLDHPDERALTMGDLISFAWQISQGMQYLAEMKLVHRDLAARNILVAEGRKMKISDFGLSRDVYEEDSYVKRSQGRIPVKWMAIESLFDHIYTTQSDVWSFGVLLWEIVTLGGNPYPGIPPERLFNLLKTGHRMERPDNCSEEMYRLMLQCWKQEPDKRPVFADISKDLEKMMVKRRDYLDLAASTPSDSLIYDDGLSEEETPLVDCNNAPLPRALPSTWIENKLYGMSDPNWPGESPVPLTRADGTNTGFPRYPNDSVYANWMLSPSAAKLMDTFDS

Test [9] concerns the target Arg(h) (human) (UniProt P42684).
Test [10] addresses MINK(h) (human) (UniProt Q8N4C8).
Test [11] has as its target T5, PDK1(h) (human) (UniProt O15530).
T5 sequence (looked up): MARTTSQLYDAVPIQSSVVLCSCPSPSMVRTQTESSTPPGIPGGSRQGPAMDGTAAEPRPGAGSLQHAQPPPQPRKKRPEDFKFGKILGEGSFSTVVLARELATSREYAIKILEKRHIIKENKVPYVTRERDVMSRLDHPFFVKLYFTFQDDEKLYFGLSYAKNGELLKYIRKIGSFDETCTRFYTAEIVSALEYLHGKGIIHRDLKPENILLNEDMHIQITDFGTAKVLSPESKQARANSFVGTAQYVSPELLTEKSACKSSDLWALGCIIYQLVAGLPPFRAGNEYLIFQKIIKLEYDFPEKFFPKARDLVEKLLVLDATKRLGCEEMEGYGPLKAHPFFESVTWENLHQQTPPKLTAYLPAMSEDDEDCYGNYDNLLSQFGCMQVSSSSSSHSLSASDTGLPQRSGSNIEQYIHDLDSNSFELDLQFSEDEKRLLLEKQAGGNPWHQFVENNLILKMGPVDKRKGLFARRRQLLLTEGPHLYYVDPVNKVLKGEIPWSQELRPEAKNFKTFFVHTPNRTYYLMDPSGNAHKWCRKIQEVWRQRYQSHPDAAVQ

Test [12] deals with ErbB4(h) (human) (UniProt Q15303).
Chain of ErbB4(h) (human) (Q15303 706-991 limits assumed): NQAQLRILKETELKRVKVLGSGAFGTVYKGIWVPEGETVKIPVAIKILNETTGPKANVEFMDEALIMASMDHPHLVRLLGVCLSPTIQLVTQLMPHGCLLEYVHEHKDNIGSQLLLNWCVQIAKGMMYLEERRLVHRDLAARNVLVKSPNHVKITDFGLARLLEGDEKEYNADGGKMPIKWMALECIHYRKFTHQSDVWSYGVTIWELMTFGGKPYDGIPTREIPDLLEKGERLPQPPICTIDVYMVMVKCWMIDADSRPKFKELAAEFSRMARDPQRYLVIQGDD

Chain of Arg(h) (human) (P42684 38-1182 limits assumed): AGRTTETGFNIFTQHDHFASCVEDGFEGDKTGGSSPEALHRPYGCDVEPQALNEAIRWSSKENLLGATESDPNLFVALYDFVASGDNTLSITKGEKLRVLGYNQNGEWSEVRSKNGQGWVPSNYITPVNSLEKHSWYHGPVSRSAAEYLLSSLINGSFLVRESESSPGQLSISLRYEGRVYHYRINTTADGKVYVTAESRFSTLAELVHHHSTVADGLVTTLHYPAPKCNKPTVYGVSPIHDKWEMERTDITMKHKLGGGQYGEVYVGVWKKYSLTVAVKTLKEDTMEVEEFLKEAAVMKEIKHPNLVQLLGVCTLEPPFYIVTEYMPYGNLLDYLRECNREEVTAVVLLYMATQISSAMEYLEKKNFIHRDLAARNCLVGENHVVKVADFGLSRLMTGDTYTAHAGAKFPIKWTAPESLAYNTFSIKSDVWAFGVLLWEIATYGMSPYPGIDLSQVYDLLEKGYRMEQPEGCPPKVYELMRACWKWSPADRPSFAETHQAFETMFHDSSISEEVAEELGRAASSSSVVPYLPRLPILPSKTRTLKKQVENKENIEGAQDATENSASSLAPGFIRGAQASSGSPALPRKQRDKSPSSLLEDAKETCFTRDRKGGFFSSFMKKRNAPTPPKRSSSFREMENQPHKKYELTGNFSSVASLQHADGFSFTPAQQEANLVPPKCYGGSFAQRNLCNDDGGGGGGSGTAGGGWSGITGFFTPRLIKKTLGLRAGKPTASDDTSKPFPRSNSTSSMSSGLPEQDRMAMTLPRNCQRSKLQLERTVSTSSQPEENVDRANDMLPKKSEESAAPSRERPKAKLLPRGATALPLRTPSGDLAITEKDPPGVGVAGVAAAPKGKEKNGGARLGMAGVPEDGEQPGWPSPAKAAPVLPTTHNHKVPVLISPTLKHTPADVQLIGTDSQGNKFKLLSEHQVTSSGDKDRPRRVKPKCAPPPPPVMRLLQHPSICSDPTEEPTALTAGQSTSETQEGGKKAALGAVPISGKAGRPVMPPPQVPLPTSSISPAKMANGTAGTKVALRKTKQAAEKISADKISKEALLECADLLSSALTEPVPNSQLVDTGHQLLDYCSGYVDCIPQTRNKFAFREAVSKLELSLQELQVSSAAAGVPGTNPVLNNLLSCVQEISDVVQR

As to MMI-0400 (peptide), the % activity at 100 µM amounted to 29% in [1]; 8% in [2]; 98% in test [3]; 61% in test [4]; 120% in test [5]; 18% in test [6]. Further, the % activity at 100 µM came out at 2% in test [7]; 145% in test [8]; 84% in [9]; 52% in [10]; 159% in test [11]; 0% in test [12].

Regarding MMI-0500 (peptide), the % activity at 100 µM in test [1] is 33%; in [2] it was 12%; in [3] it was -1%; in test [4], 0%; in test [5], 110%; in [6], 41%. The % activity at 100 µM is 1% in test [7]; 174% in test [8]; 22% in test [9]; 5% in test [10]; 178% in test [11]; 2% in test [12].

For MMI-0300 (peptide), the % activity at 100 µM in test [1] stood at 56%; in [2], 5%; in [3], 56%; in [4] it was 78%; in test [5], 132%; in test [6], 35%. In addition, the % activity at 100 µM was 1% in [7]; 140% in test [8]; 72% in test [9]; 48% in test [10]; 135% in test [11]; 40% in [12].
